{
  "source": "patent US9873733B2",
  "about": "“Anti-staphylococcal antibodies” (priority 2012, dated 2018)",
  "key": {"[1]": {"system": "Staphylococcus aureus clinical isolate USA300 (MRSA)", "assay": "Growth inhibition of clinical isolate USA300 by nisin", "type": "cell-based", "conditions": "nisin 4.5 μg/ml", "description": "(§1) Therefore S. aureus (S. aureus SA113) cells grown to mid-log phase were used to inoculate fresh TSB medium. These cultures were mixed with anti-MprF (1 μM) antibody or control IgG respectively or with anti-MprF (1 μM) antibody or control IgG in combination with nisin (6 μg/ml). The growth of the S. aureus in presence of anti-MprF antibody was monitored in culture plates shaking at 37° C. by measuring OD600. […] (FIG. 7)\nIn this experiment growth inhibition of Staphylococcus aureus clinical isolate USA300 by nisin was tested in the presence of an MprF specific antibody.\nThe experiment was performed as described in Example 5. Instead of S. aureus SA113 the clinical isolate S. aureus USA300 was used. The concentration of nisin was 4.5 μg/ml instead of 6 μg/ml nisin."}, "[2]": {"system": "S. aureus SA113", "assay": "Growth inhibition assay with nisin", "type": "cell-based, Staphylococcus aureus", "conditions": "nisin 6 μg/ml", "description": "as §1"}, "[3]": {"system": "Staphylococcus aureus clinical isolate 703", "assay": "Killing of clinical isolate 703 by daptomycin", "type": "cell-based", "conditions": "11 μg/ml daptomycin, in the presence of the anti-lysozyme antibody", "description": "(§2) Overnight cultures of S. aureus SA113 Δspa were diluted in fresh MHB medium and adjusted to OD600 0.25 (˜1.5×10^7 cells). Antibodies were adjusted to a concentration of 1 mg/ml and 10 μl were applied per well of a 96 well plate and diluted in 90 μl of the adjusted cell suspension (final antibody concentration: 100 μg/ml). Cells were grown in the presence of anti-lysozyme antibody (control) or with the anti-MprF antibodies. Duplicates were employed for each assay. After 3 hours of incubation under shaking conditions at 37° C., optical density was determined, adjusted to OD600 0.025 in 500 μl ice cold PBS buffer. 80 μl of the adjusted cell suspension were diluted with 20 μl of antimicrobial substances to final concentrations of 22.5 μg/ml nisin. After incubation for 2 hours under shaking conditions at 37° C., the cell suspensions were diluted 1:2000 and 100 μl of each duplicate was plated in triplicates on TSB medium containing agar plates to obtain a representative value of bacterial survival. Cells treated without antimicrobial substance were set at 100% and survival values were calculated with cells treated with antimicrobial substances. At least three independent assays were employed.\nIn this experiment killing of Staphylococcus aureus clinical isolate 703 (described in Jones et al., AAC 2008) by daptomycin in the presence of an MprF specific antibody was analyzed. […]"}, "[4]": {"system": "Staphylococcus aureus clinical isolate 703", "conditions": "Jones et al., AAC 2008; cited from earlier work"}, "[5]": {"system": "MprF on S. aureus (Protein A deletion mutant, delta spa)", "assay": "Whole cell ELISA on S. aureus", "type": "binding, Staphylococcus aureus", "conditions": "E. coli as negative control", "description": "(§3) The specificity of the purified antibodies was tested for binding to whole cell Staphylococcus aureus in an ELISA assay. Escherichia coli bacteria were used as a negative control.\n(§4) For ELISA on S. aureus the Protein A deletion mutant (delta spa) or the mutant with an additional deletion in MprF (delta spa delta mprf) were grown to mid log phase, than washed in PBS and resuspended in saline to a final OD600 of 0.6. This bacterial culture was coated on Maxisorp plates (Nunc). Plates were blocked with 2% BSA/PBS and washed with TSB containing 0.5% TWEEN20."}, "[6]": {"system": "S. aureus mutants lacking MprF expression (delta spa delta mprF)", "assay": "Whole cell ELISA on S. aureus mutant lacking MprF", "type": "binding, Staphylococcus aureus", "conditions": "compared with delta spa", "description": "as §3, §4"}, "[7]": {"biological_target": "linear peptide representing loop 1 of MprF (Staphylococcus aureus, UniProt Q2G2M2)", "sequence (Q2G2M2 31-50, looked up, natural form)": "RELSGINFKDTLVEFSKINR", "conditions": "IgG at various concentrations; peptide 5 μg/ml", "description": "(§5) The IgGs were tested for binding to the antigen, which was used in their selection. Also binding to other MprF-peptides was tested to check for selectivity.\nMprF-specific IgGs were detected using goat-anti-human IgG (Sigma).\n(§6) In both cases washing was performed using PBST ([…] with 0.05% TWEEN20. Detection was performed using alkaline phosphatase coupled Goat anti-human IgG (Sigma Cat. # A-8542 and Attophos™ substrate Roche, Cat. #11681982001). Fluorescence was measured at an excitation of 440±25 nm and an emission of 550±35 nm. Full signal intensity is typically reached after 5-15 min at room temperature."}, "[8]": {"biological_target": "cyclic peptide representing loop 4 of MprF (Staphylococcus aureus, UniProt Q2G2M2)", "conditions": "IgG in PBS; biotinylated cyclic peptide 5 μg/ml", "description": "as §5\n(§7) For ELISAs with cyclic antigen, the biotinylated cyclic peptides (final conc. 5 μg/ml) were incubated with IgGs in PBS. Then the mix was transferred to a pre-blocked Neutravidin plate (Thermo Scientific), incubated and then the plate was washed with PBS containing 0.5% of TWEEN20. MprF-specific IgGs were detected using goat-anti-human IgG (Sigma).\nas §6"}, "[9]": {"system": "S. aureus SA113 Δspa", "assay": "Killing of S. aureus by nisin with MprF antibodies", "type": "cell-based, Staphylococcus aureus", "conditions": "antibody 100 μg/ml, 22.5 μg/ml nisin, 2 hours; anti-lysozyme antibody as control", "description": "In this experiment killing of Staphylococcus aureus was tested. Nisin was used as an exemplary cationic antimicrobial compound. Nisin was tested in combination with selected antibodies of the present invention. An anti-lysozyme antibody was used as a negative control.\nas §2"}, "[10]": {"biological_target": "cyclic peptide representing loop 5 of MprF (Staphylococcus aureus, UniProt Q2G2M2)", "conditions": "IgG in PBS; biotinylated cyclic peptide 5 μg/ml", "description": "as §5, §7, §6"}, "[11]": {"biological_target": "cyclic peptide representing loop 6 of MprF (Staphylococcus aureus, UniProt Q2G2M2)", "conditions": "IgG in PBS; biotinylated cyclic peptide 5 μg/ml", "description": "as §5, §7, §6"}},
  "data": [
    {"molecule": "nisin", "values": [
      {"measurement": "Growth of S. aureus USA300, nisin alone", "setting": "[1]", "value": "an effect of nisin alone in terms of reducing bacterial growths was observed"},
      {"measurement": "Growth of S. aureus (OD600), nisin alone", "setting": "[2]", "value": "an effect of nisin alone in terms of reducing growths of bacteria was observable"}
    ]},
    {"molecule": "CCCCCCCCCC(=O)N[C@@H](Cc1c[nH]c2ccccc12)C(=O)N[C@H](CC(N)=O)C(=O)N[C@@H](CC(=O)O)C(=O)N[C@@H]1C(=O)NCC(=O)N[C@@H](CCCN)C(=O)N[C@@H](CC(=O)O)C(=O)N[C@H](C)C(=O)N[C@@H](CC(=O)O)C(=O)NCC(=O)N[C@H](CO)C(=O)N[C@@H]([C@H](C)CC(=O)O)C(=O)N[C@@H](CC(=O)c2ccccc2N)C(=O)O[C@@H]1C", "note": "[daptomycin, reference compound]", "values": [
      {"measurement": "Effect of daptomycin on S. aureus 703", "setting": "[3]", "value": "no effect on S. aureus 703"},
      {"measurement": "Responsiveness of S. aureus clinical isolate 703 to daptomycin", "setting": "[4]", "value": "non-responsive to daptomycin"}
    ]},
    {"molecule": "M-L1: human IgG1 against linear peptide, loop 1 of MprF; VH1A kappa 3; VL Seq. ID: 14, VH Seq. ID: 15 (antibody, V domains shown, ML1 VH; ML1 VL, human IgG1 against linear peptide, loop 1 of MprF; VH1A kappa 3; ID: 15) VH: QVQLVQSGAEVKKPGSSVKVSCKASGGTFNSYAIHWVRQAPGQGLEWMGGIIPIFGIANYAQKFQGRVTITADESTSTAYMELSSLRSEDTAVYYCARDQYTYDYYRAFDYWGQGTLVTVSS VL: DIVLTQSPATLSLSPGERATLSCRASQSVRDNLAWYQQKPGQAPRLLIYGASNRATGIPARFSGSGSGTDFTLTISSLEPEDFAVYYCQQYDHSPRTFGQGTKVEIKRT", "values": [
      {"measurement": "Binding to whole cell S. aureus (ELISA)", "setting": "[5]", "value": "detect MprF on S. aureus"},
      {"measurement": "Binding to S. aureus mutants lacking MprF expression (ELISA)", "setting": "[6]", "value": "significantly weaker binding"},
      {"measurement": "Specific binding to linear loop 1 peptide (ELISA)", "setting": "[7]", "value": "specifically bind to linear loop 1 peptide in a dose-dependent manner"}
    ]},
    {"molecule": "M-C4.2: human IgG1 against cyclic peptide, loop 4 of MprF; VH3-23 kappa 1; VL Seq. ID: 54, VH Seq. ID: 55 (antibody, V domains shown, MC42 VH; MC42 VL, human IgG1 against cyclic peptide, loop 4 of MprF; VH3-23 kappa 1; ID: 55) VH: EVQLLESGGGLVQPGGSLRLSCAASGFTFSSYAMHWVRQAPGKGLEWVSVISSVGSSTYYADSVKGRFTISRDNSKNTLYLQMNSLRAEDTAVYYCARGGLDVWGQGTLVTVSS VL: DIQMTQSPSSLSASVGDRVTITCRASQDISKYLNWYQQKPGKAPKLLIYAASRLQSGVPSRFSGSGSGTDFTLTISSLQPEDFATYYCQQGDSTPFTFGQGTKVEIKRT", "values": [
      {"measurement": "Specific binding to cyclic loop 4 peptide (ELISA)", "setting": "[8]", "value": "specifically bind to cyclic loop 4 peptide in a dose-dependent manner"},
      {"measurement": "Sensitivity of S. aureus towards nisin (killing, bacterial survival)", "setting": "[9]", "value": "most pronounced effects"}
    ]},
    {"molecule": "M-C5.1: human IgG1 against cyclic peptide, loop 5 of MprF; VH1A kappa 1; VL Seq. ID: 74, VH Seq. ID: 75 (antibody, V domains shown, MC51 VH; MC51 VL, human IgG1 against cyclic peptide, loop 5 of MprF; VH1A kappa 1; ID: 75) VH: QVQLVQSGAEVKKPGSSVKVSCKASGGTFSSYAISWVRQAPGQGLEWMGGIVPIFGTANYAQKFQGRVTITADESTSTAYMELSSLRSEDTAVYYCARVRYGYWDVWGQGTLVTVSS VL: DIQMTQSPSSLSASVGDRVTITCRASQDIANWLNWYQQKPGKAPKLLIYAASSLQSGVPSRFSGSGSGTDFTLTISSLQPEDFATYYCQQYISLPITFGQGTKVEIKRT", "values": [
      {"measurement": "Binding to whole cell S. aureus (ELISA)", "setting": "[5]", "value": "detect MprF on S. aureus"},
      {"measurement": "Specific binding to cyclic loop 5 peptide (ELISA)", "setting": "[10]", "value": "specifically bind to cyclic loop 5 peptide in a dose-dependent manner"},
      {"measurement": "Binding to S. aureus mutants lacking MprF expression (ELISA)", "setting": "[6]", "value": "significantly weaker binding"},
      {"measurement": "Sensitivity of S. aureus towards nisin (killing, bacterial survival)", "setting": "[9]", "value": "most pronounced effects"}
    ]},
    {"molecule": "M-C6.2: human IgG1 against cyclic peptide, loop 6 of MprF; VH1A kappa 1; VL Seq. ID: 104, VH Seq. ID: 105 (antibody, V domains shown, MC62 VH; MC62 VL, human IgG1 against cyclic peptide, loop 6 of MprF; VH1A kappa 1; ID: 105) VH: QVQLVQSGAEVKKPGSSVKVSCKASGGTFSSYAISWVRQAPGQGLEWMGGIIPILGIANYAQKFQGRVTITADESTSTAYMELSSLRSEDTAVYYCARSLPYRSDLYGFSRWSYHRVGMDVWGQGTLVTVSS VL: DIQMTQSPSSLSASVGDRVTITCRASQDISNTLNWYQQKPGKAPKLLIYAASTLQSGVPSRFSGSGSGTDFTLTISSLQPEDFATYYCQQVGSFPYTFGQGTKVEIKRT", "values": [
      {"measurement": "Specific binding to cyclic loop 6 peptide (ELISA)", "setting": "[11]", "value": "specifically bind to cyclic loop 6 peptide in a dose-dependent manner"},
      {"measurement": "Sensitivity of S. aureus towards nisin (killing, bacterial survival)", "setting": "[9]", "value": "most pronounced effects"}
    ]}
  ]
}
